In the NTF2 design screens of Basanta et al. (2020) one finds protease stability score data, which are given here for 34 sequences.

This series in a line: protease stability score; higher = more stable; yeast display proteolysis, trypsin and chymotrypsin.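 Further: relative to predicted unfolded state with 0 unfolded-like and 1 meaning tenfold more protease.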
For “DDTDKLLKEYLEMEMEMIRTGNEHIFTRLADPNVRIEQGDKHFHGREEYKRLMEEHFEKIQHAKIEFRVHDIKRIGDKMYIRGEFIVHVGEYHESQDRIFINRKIDGRWYVEEIIIR”, the protease stability score came to 1.25.
Sequence “SHEDELIERFYKWLIHILETGDEERWMEYADPDARLLYNGKDLIGRDEARRQMHEMRFHHMEVKSIRVVDGKVNVTGRIDGEINGRHHEHEVLLVIIKFNGKWLIKTVQFH” displayed a protease stability score of 1.22.
“SEDDEKLKDFLRMLIEVILTGDEERFFELLDPHARLEYGDKEFHGREVIYHWFFNEFRRIKGLVFRNIHLREHDVVDGRLQIDLEVHIIFNGKTRSHDIHFVATKIDGRWILRTESIK” showed a protease stability score of 2.33.
As for “DEMTEDSERAMEILVRSILTGDEKDLIELADPNVRLDVNGRDYHGWKNFIKVFKKIMDELRIKDTELKDVRNQGEKAILDTRIHGIINGREIIFESSIDHRKINGVWLIERIIIK”, the figure is 1.1; as for “DELTESVREFIEHFIRALETGDWHILHRLLDPHVKLNVNGVEFHGREIIVEFLREIRIHSFIVHHVRIQGDWIDIDGETDGVINGRRIRTRTRIHLHKIDGRWQIKSESVI”, 2.09; as for “SHWEEDARRFNEIFITHFMTGDWHHLERMLDPHTRAHINGVNTVGREEVSRLVTELFEELGAKHHRIHDFRIQGDKVDTHHHLDVNGRNNHFIIHVKKINGKWRVESIEMTVI”, 1.22.
Turning to “SEEDEHLRHLAELFVKLLLTGDFNTLHHLLDPHVKFNIGEFESHGMEHLWRAWEEWRFHHISLEDVRVQGDKAHLHFRSTVHYNGRTKRVDTHVEIKVVNGRFKEVHIRIH”, the protease stability score came to 1.59.
Consider “TEDEDYMHDATREFVTNVATGDEDRLRELMDPRTRHVYNGVRLHGRNLALEFWTHFRRELGVDHIEIRIRDLKFQGDYIHLHTEIVMDFNGVRIIYDTFVRVRKFNGQWMLQSSEIH”, for which the protease stability score turned out to be 0.194.
Regarding “DEEDEVLKLAFEFIRHQLETGDEDTLNRYVDPHARFEVNGRDIHGRDRYNRFLEELYRKHGVEIKDVLLQDNKSQGDKIRIDIKINIDVNGREVNFDVHIIALKINGKWIHKRQIDI”, the protease stability score stood at 0.542.
“DEEKEDFHHAVELVLRVIKTGDEHTARELMDPRVRIDIDGQDFHGWQHIVHFVKHWRIERYSLKYVEYIDGRIHNTVLLDITVDGQRRNLEVYIIFLKYNGRWILTEVILR” showed a protease stability score of 1.84.
“RDEDRDRHHAWREFERIMLTGDWRESEKLIDPHVRLDIDGRRHHGMEIYSTLLYHISTRADHIRVILDDIKVQGEKVEVDTIIDIHVGDKHIHIKTHIVASKINGRWFLHSLKID” registered a protease stability score of 0.929.
In turn, “DEDHDVYHRLVKITLSLLATGDESWMKKLFDPHVRVNINGVDVHGREWLLKLFRLLLERLGVDHMTAHVHDFRQYDGRVHADTTEVYDVDGREIRFKTEVIIDKFNGRWFVTFVIII” gave a protease stability score of 1.78.
Turning to “SENKRVAVEWVRDFLRALRTGDEDRVRQLADPHVRIDFNGRDHHGRHFLVRMLREIRIHDVRIRDVDVQGDFLITELEIDVEIDGKRDTLRMNIIFEKVDGRWMVSEVQFE”, the protease stability score was 1.5.
Regarding “SEEDEHLERLFRDLIDSFVTGDEDSWHQLADPNARLIVGDKTYHGREKISEYWRRMREEIRVEIKVDHVDIQGDKVHSRVTLIVRINGREIRRDTHMLIIVWNGRFKEERIIPR”, the protease stability score amounted to 1.25.
Take “SEEEEKARRLSELITRSFLTGDEEELEELLDPNARNIYNGVIVHGREEVSRLFHEEWLRYGIDHVRLEDMHIDVQGDKVDFHIIMRSEFNGRVHHVRVEVHIEKVDGRWVMKRLELRFS”: the protease stability score turned out to be 0.977.
The figure for “DEDTEDLKRLIKLFVDLIRTGDWEELEKLLDPNVRLHFNGRDYHGRELALELMKVFGVDHIQLREVRVVNGKAENRTELIVNGREHEEHVIMEKIDGRWRIRSFEFR” is 1.3; for “DEQERAQEALRRFLRVFQEGDPDRARQQADKDVQMVVGDKEYEGREQVSRAIESLRERVDEFHITVRRITVSGNRVVVDAKLKLNINGKEDDVTLKLVIDVSGDKISIKRVEVR” it is 1.16.
“SELEKFIRKYSDDWRELHRTGDFEIFQELADPHMIFHSIVGDKRTEIHGRESYIEWLREELEHWRIHHIQLRRSTAIGDFAVVDGELDGEFNGQRERRKVKVDLFVVNGQTKHIEFRIH” returned a protease stability score of 1.19.
Regarding “SDEMEEYEDFMKRVLEALETGDFREIRHLFDPDVKIHIDGRDIVGRESYTEHVRKWREDLGFDHIHLKIHDVKLFDGQIHVDARLEIRIGDKRDSHNVEFRLHKVDGQWLVRRVHVH”, the protease stability score stood at 1.6.
As for “DEDEKIIQQFLREHTETNDTGDENTFKKQLDPHARTIFNGREYHGREDAYRILKELGWSRFEFHLRHVDIQGEKLHVMGLLRVDGKWLDVEIVANKINGRWVLTEFHIN”, the figure is 0.417; as for “DEDEHVLEHIVRLLIRIHLTGNFDRLRELVDPHAQIIIGDKEYHGWHMLEKWLERMGIDHIHIRHNEIRYYGEFAVLHLDTEVSIDGQSLHQIVHLDVDKVDGKWRVKNIRTDHR”, 1.34; as for “SETHEILERIMRMILEILYTGDEESMSRLLDPHVKLVVVIGDKELHLHGRENALRWLVHWRIEDYRLRRYTVQGDKAHVDTESTGNYNGQREESRFSLHVKVINGKIHNMKFEFE”, 2.56.
In the case of “SEEEEFARQMMEHFLKNFITGNEELFKENLDPDVRIIIVVNGREFENVGREHFWHHFRRSFEELGVKHLHLKDIRVINGRLFLFAEIEIGDKRVELHFLVLKVDGKWVIEELHIKFL”, the protease stability score was 2.32.
On to “SEEERETRKIFEDLLKTMETGDWRHLHRLIDPNARLIVNGQEFHGREDLIRLLEQLRIRSMRITDVRNQGNKSHVDGTVEGEWNGRTDNNRTEVHLVVVDGVLKHVEFHLH”, for which the protease stability score was found to be 1.47.
“DEFNEATRRALHEEMKTRHTGDEDLFHRLADPDVRVIYGDKHIHGREEVVHWLREIRVKTHHLEIRRSHFQGEKAHVDGKLNGDFIFDGRTFTVQIHVEFIMIKWNGQWRIEMLRFE” came in with a protease stability score of 1.09.
Take “DEEDELSEELSRFSLKTLRTGDEDLLSRNMDPHVRMDIDGQDLHGREHVIKFLKDWNRMFGIKHTELKHVRIQGNWIEIHARIQVGDKEMDLRIYAVKIDGRWLVHSIEVEKK”: the protease stability score was 0.182.
With “DEHTRLMDRVSKELMHYRRTGDEHSLDHLLDPHVRLDQGDWEKHGMEEYIEFVRRVKNVKLRIHDITVDIVNGVVIVFIDGILHVNGVDITTRIHIYFRKVNGVWLVESLRYEVG”, the protease stability score was 0.373.
As for “SEEEEFAERLVRMFEEELATGDEHKLQRLLDPHVKVEINGREIIGREEWTNHLDHIRLELHDTKLREVRVQGDKIHVHGKTDIIIKVGDKSERHHVEVLFIIKKINGRWILERVHVR”, the protease stability score came out at 1.13.
On to “DRHEETDRRAVKILLEVIRTGDFETFYRLMDPHARYEYGEKELHGRDKSLKLLEELLRRFGHDKVEVHLKTYSAIDGRMEIHSVVNYNGREHNLHIESDKVNGRWEIRDIHVL”, for which the protease stability score amounted to 1.09.
As to “DELERLVEDLVRILLEILLTGDWKILMRLMDPDARFIYGDKQRVGMEEVIKELHRLKEEIRINSIEIKRVEIQGDWVHVDGRSDVEVGDKRRSTEVRYHFHVFNGRMRRINIEVE”, the protease stability score amounted to 1.12.
“DELEHIERRYWHLFVRALETGDEERLDRLVDPHARLDWNGREIVGREHLRHYLSHMRIVIEHHHIKDVNIQGEKIDSDIHLVLTMHVGDKDLEIRTDARSIHLKIDGKWLIESHKIK”: the protease stability score came out at 0.966.
Take “SEEEQLVQSAIEITVEALQTGDEHKIREMLDPHVKVRINGQDTHGWEVMEVFMKELGIKHIRVHIEHVNVQGEKVEVKGRVIINFNGRHYEREHWIIIFKIDGRWVNDSIEYI”: the protease stability score is 2.12.
Turning to “DEKHEIMREALKEFITEQRTGNEDRIKQLMDPNVRIFVGDKEFHGREEVMRILKILRHELGVDNIFIILRSMHIVDGRVHLDVELHINGRIFKSELVILKIDGQWLIRSIHIE”, the protease stability score came out at 1.66.
Take “DEEERISEELFNFITKHWLTGDFDAVRNRLDPNVRYLINGREWHGREYARHLASHLRVERVKIENFEIQGNKITFDTRMDGEFDGQHIDVKTIIIFVKIDGKWLLHEFVIH”: the protease stability score worked out at 1.34.
